Source: the supplement of paper PMC9170038

Test system: MS2 coat protein
Test: apparent KD of MS2 coat protein; designed switch direction (-1 OFF switch, 1 ON switch): 1; higher = weaker reporter binding
In short: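 Stalled E. coli RNA polymerase transcribed designed RNA switches on Illumina chips, which were then titrated with SNAP-549-labelled MS2 coat protein, doubling from 0.7 or 1.5 nM to 3 µM. Steps lasted from 0.8–1.5 h at the lowest concentration to 10–20 min at the highest. The apparent KD is each design's median over clusters of curve-fitted normalised fluorescence.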

[1] = Eterna round: R95, input ligand: microRNA oligo, concentration not stated
[2] = input ligand: microRNA oligo, concentration not stated
[3] = Eterna round: R95, input ligand: FMN 200 uM
[4] = Eterna round: R95, input ligand: none

Row | Sequence | apparent KD of MS2 coat protein [1] [nM] | apparent KD of MS2 coat protein (input ligand: FMN 200 uM) [nM] | apparent KD of MS2 coat protein [2] [nM] | apparent KD of MS2 coat protein (input ligand: none) [nM] | apparent KD of MS2 coat protein [3] [nM] | apparent KD of MS2 coat protein [4] [nM]
1 | CAGCGCUGUCGAGAGGAUAUGCGGUGAUGGACAUGAGGAUCACCCAUGUUAGCGAUAGCAUUACGGUAGAAGGCUCUGCAGCUGC [Soteed - 1] (puzzle: Same State 2) | 78.9 | – | – | – | – | –
2 | CAGCUCGUGUGAGGAUAUGCCGCCGUUUCGGCUGCAGAAGGUGCUACGUUACAUGAGGAUCACCCAUGUCUCUGUUGUUUCGUG [salish99_SSNG1_r04_963] (Eterna round: R96, puzzle: Same State NG 1) | – | 20.8 | 17.9 | 23.2 | – | –
3 | CCGCGGGUAUCACAGGAUAUACUCAUAAUUACAUGAGGAUCACCCAUGUGACGGAAUUCCGGUGCGUAGAAGGGUGAUGGACCGC [Onquorbe] (puzzle: Same State 2) | 52.1 | – | – | – | 19.3 | 65.7
4 | CCGGUAUAUGGAGGAUAUGGAGCCUUAUUGGCUCCAGAAGGCUAAUAACAUGAGGAUCACCCAUGUCCGGCGGUCAAUAGACCG [Eli NG1ss - 59] (Eterna round: R96, puzzle: Same State NG 1) | – | 66.7 | 113 | 336 | – | –
5 | CCGUAGAUGGUAGGAUAUGGAGCCUUAUUGGCUCCAGAAGGAUCUAAAACAUGAGGAUCACCCAUGUCGGCGGUCAAUAGACCG [Eli NG1ss - 83] (Eterna round: R96, puzzle: Same State NG 1) | – | 67.2 | 65.1 | 107 | – | –
6 | CCGUCGGAGGUAGGAUAUGGAGCCUUAUUGGCUCCAGAAGGAUCAAAUAAAUUAACAAACAUGAGGAUCACCCAUGUCCGACGG [Eli NG1ss - 86] (Eterna round: R96, puzzle: Same State NG 1) | – | 156 | 331 | 558 | – | –
7 | CCGUGGUAACAUGAGGAUCACCCAUGUACAAGCUUUUUGCUCGUUGGAUCCGGCGCGCCCAUUAUGGGCGCGCCGGA [Nishu_Seq2] (puzzle: Sensor for hsa-mir-208a version 2) | 16 | – | – | – | 26.2 | 25.6
8 | CGCAUCAUUGUUACAUGAGGAUCACCCAUGUUUUCGAGUGGAGAGGAUAUCGUAACAGUAUAAAUCGAGAAGGCUCUAUAGUAU [JR_SSNG3_Sub082] (Eterna round: R96, puzzle: Same State NG 3) | – | 34.1 | 77.1 | 81.6 | – | –
9 | CGCCAACGCAUAGGAUAUGCUUGUGUGGAUCGGGCAGAAGGGUGGUUGGAAACAUGAGGAUCACCCAUGUAAAAGUAAGAAAAU [Rierinqu] (Eterna round: R96, puzzle: Same State NG 1) | – | 1450 | 926 | 668 | – | –
10 | CGCCAGAGAACAGGAUAUGGGCCGCGGCCUAAGGGCUGCUAACUCACAUGAGGAUCACCCAUGUCCCAGAAGGGUUCCUGGCUG [Gexeso] (Eterna round: R96, puzzle: Same State NG 2) | – | 602 | 31.4 | 45.8 | – | –
11 | CGUAGGAUAUGCAGAGGAUCACCCUGUAGAAGGACGAUUACGUAGGAUAUGCAGAGGAUCACCCUGUAGAAGGACGACUAAUCU [pwkr ssNG3 DX 2xF5 +2xFMN.2] (Eterna round: R96, puzzle: Same State NG 3) | – | 174 | 105 | 129 | – | –
12 | CGUCCGGCCUGAGCUGGACGGAAGCAUGUACAUGAGGAUCACCCAUGUUCAUGUGCAGGCUUUUUGCUCGUCUUGUG [JL-shm-2.08 JL mod] (puzzle: Sensor for hsa-mir-208a) | 12.5 | – | – | – | 105 | 127
13 | CGUUCUUACUCGGUACGGUGAGUAGAGGAACAUGAGGAUCACCCAUGUUUGAGCUUUUUGCUCGUGAUUAACAGUUG [JR_SHM208a_Sub015] (puzzle: Sensor for hsa-mir-208a) | 102 | – | – | – | 92.2 | 149
14 | CUAAACAGAGGAGGAUAUGCAGAGGAUCACCCUGUAGAAGGCCACAGAGGAGGAUAUGCAGAGGAUCACCCUGUAGAAGGCCAC [pwkr ssNG DX.7] (Eterna round: R96, puzzle: Same State NG 1) | – | 121 | 210 | 222 | – | –
15 | CUCAAACAUGAGGAUCACCCAUGUGUUGUCGUGGGAGGAUAUCCCAGUUCGGUGGCGUCGGGAGAAGGCCUAUGUC (Eterna round: R96, puzzle: Same State 1) | – | 67.8 | 106 | 129 | – | –
16 | CUCAAACAUGAGGAUCACCCAUGUGUUGUCGUGGGAGGAUAUCCCAGUUCGGUGGCGUCGGGAGAAGGCCUAUGUC [× ×•×ª×• ×ž×“×™× ×” × ×—×ª-16] (puzzle: Same State 1) | 100 | – | – | – | 50.4 | 129

Row | Sequence | apparent KD of MS2 coat protein [1] [nM] | apparent KD of MS2 coat protein (input ligand: FMN 200 uM) [nM] | apparent KD of MS2 coat protein [2] [nM] | apparent KD of MS2 coat protein (input ligand: none) [nM] | apparent KD of MS2 coat protein [3] [nM] | apparent KD of MS2 coat protein [4] [nM]
17 | CUCCCAGCGGGAGGAUAUGGUGCCUUGUUGGUGCUAGAAGGUCCAACAUGAGGAUCACCCAUGUGGGAGUGGUUGAGAGACCUC [SS NG10LRO12] (Eterna round: R96, puzzle: Same State NG 1) | – | 218 | 166 | 278 | – | –
18 | CUGAAAUGUCAAGGAUAUCACGUCGAUUAGACGUGAGAAGGUGAUCUACACAUGAGGAUCACCCAUGUGUUACAUGGGAGUCAG [Brourd's SSNG1/1-A2 mod 17] (Eterna round: R96, puzzle: Same State NG 1) | – | 325 | 448 | 601 | – | –
19 | CUGAAAUGUCAAGGAUAUCACGUCGAUUAGACGUGAGAAGGUGAUCUGCACAUGAGGAUCACCCAUGUGUUACAUGGGAAUCAG [Brourd's SSNG1/1-A2 mod 15] (Eterna round: R96, puzzle: Same State NG 1) | – | 289 | 90.3 | 624 | – | –
20 | CUGAGCAAUCAAGGAUAUCACGUCGAUUAGACGUGAGAAGGUGAUCAUCACAUGAGGAUCACCCAUGUGUUACAUGGAGCUCAG [Brourd's SSNG1/1-A2 mod 4] (Eterna round: R96, puzzle: Same State NG 1) | – | – | 610 | – | – | –
21 | CUGCAACAUGAGGAUCACCCAUGUAACCCAAUUAUAGGAUAUGUGAUGGUGAUCGACAUGACAGAAGGGUGAUUGG [Arinra] (Eterna round: R96, puzzle: Same State 1) | – | 174 | 29.7 | 41.8 | – | –
22 | CUGCAACAUGAGGAUCACCCAUGUAACCCAAUUAUAGGAUAUGUGAUGGUGAUCGACAUGACAGAAGGGUGAUUGG [Arinra] (puzzle: Same State 1) | 99.4 | – | – | – | 199 | 46.4
23 | CUGGCGCGCACAGGAUAUGCGGCCGGCAAGGUGGCAGAAGGGUGAUAAACAGACGACAUGAGGAUCACCCAUGUCGCAAAGAAU [Arsobe] (Eterna round: R96, puzzle: Same State NG 1) | – | 214 | 71.3 | 85.4 | – | –
24 | CUUUUUAAUGCAGGAUAUGAUCAACAUGAGGAUCACCCAUGUGGCGUUGUGAGUAGGGAGAGUGAUCAGAAGGGCGUCUCCUCG [SS-NG2-LRO09] (Eterna round: R96, puzzle: Same State NG 2) | – | 43.9 | 38 | 56.6 | – | –
25 | CUUUUUAAUGCAGGAUAUGAUCAACAUGAGGAUCACCCAUGUGGUGUUGUGAGUAAGGAGAGUGAUCAGAAGGGCAUCUCCUCA [SS-NG2-LRO06] (Eterna round: R96, puzzle: Same State NG 2) | – | 186 | 73.6 | 83.6 | – | –
26 | GAAAAACAUGAGGAUCACCCAUGUGAGAAUAUGGGAGGAUAUUCAAAGACGAAAGUCAAAGAAGAAGGCCUAAAAG [Mat - Same State 1 - Eli mod - 37] (Eterna round: R96, puzzle: Same State 1) | – | 33.4 | 143 | 211 | – | –
27 | GAAAGCAUGGGAGGAUAUAGCCUCUAUGGAGGGCUAGAAGGCCCUGGCCACAUGAGGAUCACCCAUGUGAAAUAAAUAGAAGAA [MOD Raarceza] (Eterna round: R96, puzzle: Same State NG 1) | – | 453 | 2.74 | 188 | – | –
28 | GAAGAACAUGAGGAUCACCCAUGUAAGCGGAAGCUAGGAUAUGCGGGAAAGAAAAGAGAAGCAGAAGGAGUAGGAA [JR_SS1_Sub028] (puzzle: Same State 1) | 44.7 | – | – | – | 33 | 68.2
29 | GAAGAACAUGAGGAUCACCCAUGUAGGCGGAAGCUAGGAUAUGCGGGAAAGAAGAGAGAAGCAGAAGGAGUAGGUA [JR_SS1_Sub030] (puzzle: Same State 1) | 28.3 | – | – | – | 28.1 | 38.2
30 | GAAUUAAGAGUAGGAUAUGUGGGCGAGCUGCCACCCACAUGAGGAUCACCCAUGUAUGGACACUCACAGAAGGGCUUAUUCAAC [Eternabot solution 37] (Eterna round: R96, puzzle: Same State NG 2) | – | 68.8 | 60.5 | 64.8 | – | –
31 | GACAUUCUAUCUCAGGAUAUCAUGUCAAAGACAUGAGGAUCACCCAUGUACCAGGAAACUGGUUAUGAGAAGGGAGAUAGAAUGG [Mat - Same State 2 - Mod - D47] (puzzle: Same State 2) | 119 | – | – | – | 122 | 221
